Experiment [1] addresses RSV prefusion F (preF), DS-Cav1 (Respiratory Syncytial Virus, UniProt P03420 26-513). The experiment is described as follows: BLI, IgG on anti-human IgG sensor.
The target of experiment [2] is RSV F on RSV-A2 virus (Respiratory Syncytial Virus (RSV-A2), UniProt P03420 26-574). The experiment is described as follows: cell-based or functional assay.
Experiment [3] has as its target RSV postfusion F (postF), F ΔFP (Respiratory Syncytial Virus, UniProt P03420 26-513). The experiment is described as follows: BLI, IgG on anti-human IgG sensor, 100 nM antigen, 1:1 fit. (In general: Biolayer interferometry detects binding as a change in optical thickness at a sensor tip.)
The target of experiment [4] is RSV postfusion F (postF), F ΔFP (Respiratory syncytial virus, UniProt P03420 26-513). The experiment is described as follows: BLI, IgG on anti-human IgG sensor, 100 nM antigen.
Experiment [5] addresses RSV F on RSV-A2 virus (Respiratory syncytial virus, RSV-A2, UniProt P03420 26-574). The experiment is described as follows: cell-based or functional assay.
Experiment [6] addresses RSV prefusion F (preF), DS-Cav1 (Respiratory syncytial virus, UniProt P03420 26-513). Kind of experiment: BLI, IgG on anti-human IgG sensor.

Where only a bound is given, the exact number is not on record here.

B1: ADI-41488 (antibody, V domains shown)
VH: EVQLVESGPGLVKPSETLSLTCTVSGGSINSDYWNWIRQTPGKGLEWIGYIFYSGNTNYNPSLKSRVTISIDTSKKKFSLQVTSVTAADTAVYYCARMGTLKFDFDNWGQGTLVTVSS
VL: QSALTQPRSVSGSPGQSVTIPCTGTSSDVGAYKYVSWYQQHPGKAPKLIIYDVTKRPSGVPNRFSGSKSGNTASLTISGLQAEDEADYYCCSYAGTHTYWVFGGGTKVTVL
notes: also called Ab 769; Antibody Number 769
B1: the binding result in experiment [1] is recorded as “no binding”. Further, the “Neutralization IC50 (RSV subtype A)” value in experiment [2] is over 25 µg/mL. Besides, the Kd (usually the free concentration of one partner at which half of the binding sites on the other are occupied at equilibrium, for simple one-to-one binding) in experiment [3] turned out to be 0.605 nM.

B2: ADI-41546 (antibody, V domains shown)
VH: QVQLVQSGAEVKKPGESLKISCKGSGYSFTNYWIGWVRQMPGKGLEWMGIIFSADSDTRYSPSFQGQVTISADKSISTAYLQWSSLKASDTAMYYCARQWGITGDAFDIWGQGTMVTVSS
VL: DIQVTQSPSFLSASVGDRVTITCRASQGISGYLAWYQQKPGKAPKLLIYAASTLQSGVPSRFSGSGSGTEFTLTISSLQPEDFATYYCQQLNSYPYTFGQGTKVEIK
Turning to B2, the binding result in experiment [1] is given as “no binding”. Further, the “Neutralization IC50 (RSV subtype A)” value in experiment [2] was over 25 µg/mL. In experiment [3], this molecule showed a Kd of 1.08 nM.

B3: ADI-41477 (antibody, V domains shown)
VH: QVQLVQSGAEVKKPGASVRVSCKASGYPFISYYIHWVRQAPGQGLEWMGMINTNGGSTHYAQKFQGRVTMTRDTSTTTIYMELSRLKSEDTAYYFCARDNTETVLHGFWSGYGSYLDYWGQGTLVTVSS
VL: EIVLTQSPGTLSLSPGGRATLSCRASQSVTSSYLAWYQQRPGQAPRLLIYGASSRAAGIPDRFSGSGSGTDFTLTISRLEPEDFAVYYCQQYGSAPLTFGGGTKLEIK
notes: also called Ab 760; Antibody Number 760
Take B3: the binding result in experiment [1] is listed as “no binding”. Moreover, in experiment [2], the “Neutralization IC50 (RSV subtype A)” value was over 25 µg/mL. Further, in experiment [3], binding was put at a Kd of 0.505 nM.

B4: ADI-41525 (antibody, V domains shown)
VH: QVQLVQSGAEMKKPGSSVKVSCKASGRTFKYFALNWMRRAPGHGLEWIGGDIPISGSTNYAQKFQGRVTITADESASTAYMEVSRLRSDDTAVYYCASLHYDVSTGFSDAFDIWGQGTMVTVSS
VL: QSVLTQPASVSGSPGQSITISCTGTSSDVGAYNYVSWYQHHPGKAPKLMIFDVSNRPSGVSNRFSGSKSGNTASLTISGLQAEDEADYYCSSYRSTFSYVFGTGTKVTVL
notes: also called Ab 797; Antibody Number 797
B4: the binding result in experiment [1] is “no binding”. Besides, the “Neutralization IC50 (RSV subtype A)” value in experiment [2] was over 25 µg/mL. In experiment [3], this molecule gave a Kd of 0.327 nM.

B5: ADI-41479 (antibody, V domains shown)
VH: QVQLVQSGAEVKKPGESLKISCKGSGYSFISYWIGWVRQMPGKGLEWMGIIYPADSDTRYSPSFQGQVTISVDKSISTAYLQWSSLKASDTGMYYCVRYGVGGTAPRYWGQGTTVTVSS
VL: NFMLTQPHSVSESPGKTVTISCTGSSGSIASNYVHWYQQRPGSAPTTVIYEDNQRPSGVPDRFSGSIDSSSNSASLTISGLKTEDEADYYCQSYDISNLWVFGGGTKLTVL
On to B5, for which, in experiment [1], the binding result is on record as “no binding”. Further, the “Neutralization IC50 (RSV subtype A)” value in experiment [2] worked out at 0.46 µg/mL. The same molecule registered a Kd in experiment [3] of 33.1 nM.

B6: ADI-41544 (antibody, V domains shown)
VH: QVQLVQSGAEVKKPGESLKISCKGSGYSFTNYWIGWVRQMPGKGLEWMGIIFPADSDTRYSPSFQGQVTISADKSVSTAYLQWTSLKASDTAIYYCARLGVAAAGGYWGQGTLVTVSS
VL: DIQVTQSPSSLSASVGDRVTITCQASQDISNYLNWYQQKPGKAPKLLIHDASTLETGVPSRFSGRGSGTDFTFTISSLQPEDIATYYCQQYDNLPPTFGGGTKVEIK
notes: also called Ab 816; Antibody Number 816
With B6, the binding result in experiment [1] is given as “no binding”. Also, the “Neutralization IC50 (RSV subtype A)” value in experiment [2] is over 25 µg/mL. In experiment [3], this molecule came in with a Kd of 0.805 nM.

B7: ADI-41805 (antibody, V domains shown)
VH: QVQLVQSGAEVKKPGESLKISCKASGYSFTSYWIAWVRQMPGKGLEWMGIIFPGDSDTRYSPSFQGQVTISADKSISTAYLQWSSLEASDTAMYYCAKSTTYYYYGLDVWGQGTTVTVSS
VL: QPVLTQPASVSGSPGQSITISCTGTSSDVGGYDYVSWYQQYPGKAPKLMIYEVSNRPLGVSNRFSGSRSGYTASLTISGLQAEDETNYYCSSYTSSRTWVFGGGTKLTVL
notes: also called Ab 914; Antibody Number 914
B7 had a Kd in experiment [4] of 2 nM. Further, the “Neutralization IC50 (RSV subtype A)” value in experiment [5] is over 25 µg/mL. Besides, in experiment [6], the binding result was “no binding (tested: 100 nM antigen)”.

B8: ADI-41507 (antibody, V domains shown)
VH: QVTLKESGPTLVKPTQTLRLTCTFSGFSLNVISGVGVGWIRQPPGKALEWLALIYWDDDKRYSPSLKSRLTIAKDTSKNQVVLTMTNMDPVDTATYYCAHKGGSIEAAVGFDYWGQGTLVTVSS
VL: QSVLTQPPSVSGAPGQRVIISCTGSSSNIGAGFAVHWYQQLPGTAPKLLIYANTNRPSGVPDRFSGSKSGTSASLAITGLQAEDEADYYCQSYDTSLSGFYVFGTGTKLTVL
Consider B8, for which, in experiment [1], the binding result is listed as “no binding”. For the same molecule, the “Neutralization IC50 (RSV subtype A)” value in experiment [2] is over 25 µg/mL. In experiment [3], this molecule showed a Kd of 140 nM.

B9: ADI-41610 (antibody, V domains shown)
VH: EVQLLESGGGVVQPGRSLRLSCAASELSFRNYGMHWVRQAPGKGLEWVAVISYDGNDKYYADSVKGRFTISRDNSKKTLYLQMDSLRAEDTAVYYCAKEGAYCGGDCFSSWGQGTLVTVSS
VL: GIQLTQSPSSLSASVGDRVTITCRASQSSSSYLNWYQQKPGKAPKLLIYAASSLQSGVPSRFSGSGSGTDFTLTISSLQPEDFATYYCQQSYSFGGGTKVEIK
notes: also called Ab 884; Antibody Number 884
The molecule B9 displayed a Kd in experiment [4] of 0.978 nM. Further, the “Neutralization IC50 (RSV subtype A)” value in experiment [5] is over 25 µg/mL. Moreover, in experiment [6], the binding result was “no binding (tested: 100 nM antigen)”.

B10: ADI-41556 (antibody, V domains shown)
VH: EVQLLESGGGLVKPGGSLRLSCAASGFSFSSYSMHWVRQAPGKGLEWVSSISSSSTYIYYADSVKGRFTISRDNAKTSLFLQMNSLRAEDTAVYYCARDPYSSGWYWDWGQGTTVTVSS
VL: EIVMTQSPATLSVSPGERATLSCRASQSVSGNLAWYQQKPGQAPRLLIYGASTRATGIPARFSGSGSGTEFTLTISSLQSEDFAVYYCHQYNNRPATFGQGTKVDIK
In experiment [4], B10 registered a Kd of 2.28 nM. Also, the “Neutralization IC50 (RSV subtype A)” value in experiment [5] is over 25 µg/mL. The binding result in experiment [6] is “no binding (tested: 100 nM antigen)”.

B11: ADI-41562 (antibody, V domains shown)
VH: QVQLVQSGAEVKKPGASVRVSCKTSGYAFSKYGISWVRQAPGQGLEWIGWISAYNENTHFSHKFLGRVTMTTDTSTGIAYMDLRSLKSDDTAVYYCARDWYSLGSDWYFGPMFDYWGQGTLVTVSS
VL: EIVLTQSPDTLSVSPGERATLSCRASQSVTTNLAWYQQKPGHAPRLLIYGASTRATGIPARFSGSGSGTEFTLTISSLQSEDFAIYYCQQYTNWPRTFGQGTKVEIK
notes: also called Ab 842; Antibody Number 842
Molecule B11 gave a Kd in experiment [4] of 0.676 nM. Also, the “Neutralization IC50 (RSV subtype A)” value in experiment [5] was over 25 µg/mL. For the same molecule, in experiment [6], the binding result was “no binding (tested: 100 nM antigen)”.

B12: ADI-41582 (antibody, V domains shown)
VH: EVQLVESGPGLVKPSQTLSLTCTVSGGPISSGVYYWSWIRQHPGKGLESIGYIYYSGSTHYNPSLKTRVTISLDTSKNQFSLKLSSVTAADTAVYYCARGCSGGSCYLYAFDIWGQGTTVTVSS
VL: QPVLTQPPSVSVAPGQTARITCGGNNIGTKSVHWYQQKPGQAPLLVVYDDSDRPSGIPERFSGSNSGNTATLTISRVEAGDEADFYCQVWDYATDHVVFGGGTKLTVL
notes: also called Ab 856; Antibody Number 856
For B12, binding in experiment [4] was put at a Kd of 0.911 nM. For the same molecule, the “Neutralization IC50 (RSV subtype A)” value in experiment [5] is over 25 µg/mL. In experiment [6], the binding result is given as “no binding (tested: 100 nM antigen)”.

B13: ADI-41553 (antibody, V domains shown)
VH: EVQLVESETEVKKPGASVKVSCKASGYTFTKYGISWVRQAPGQGLEWMGWISAYNGNTMYPHKLLGRVTMTTDTSTSTAYMELRSLRSDDTAVYYCARDQTYYDFWSGYYTYWGQGTLVTVSS
VL: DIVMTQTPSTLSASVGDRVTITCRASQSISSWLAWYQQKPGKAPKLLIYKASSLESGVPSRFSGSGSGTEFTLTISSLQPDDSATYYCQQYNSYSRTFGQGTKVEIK
notes: also called Ab 835; Antibody Number 835
For B13, binding in experiment [4] was put at a Kd of 0.804 nM. Moreover, in experiment [5], the “Neutralization IC50 (RSV subtype A)” value was over 25 µg/mL. Besides, in experiment [6], the binding result is given as “no binding (tested: 100 nM antigen)”.

B14: ADI-41576 (antibody, V domains shown)
VH: QVTLKESGPTLVKPTQTLTLSCSFSGFSLSAYAVGVGWIRQPPGKALEWLALIYWDDDKRYSPSLETRLTITKDTSKNQVVLTMTKMDPVDTATYYCVYSYNGYYEYMDVWGNGTTVTVSS
VL: DIVMTQSPATLSLSPGERATLSCRASQSVSNYLAWYQQKPGQAPRLLISGASNRATGIPDRFSGSGSGTDFTLTITTPEPEDFAVYYCQQRNAWPRTFGQGTKVEIK
notes: also called Ab 851; Antibody Number 851
As for B14, the Kd in experiment [4] came out at 1.43 nM. For the same molecule, the “Neutralization IC50 (RSV subtype A)” value in experiment [5] is over 25 µg/mL. The binding result in experiment [6] is “no binding (tested: 100 nM antigen)”.

B15: ADI-41574 (antibody, V domains shown)
VH: QITLKESGPTLVKPTQTLTLTCTFSGFSLSTSGVGVAWIRQPPGKALEWLALIYWDDDKRYSPSLKSRLTITKDTSKNQVVLTMTNMDPVDTATYYCAHSSVYTTPFDYWGQGSLVTVSS
VL: DIQLTQSPSTLSASVGDRVTITCRASQSISDWLAWYQQKPGKAPKLLIYKAFTLESGVPSRFSGSGSGTEFTLTISSLQPDDFATYYCQQYTSYWTFGQGTKVEIK
notes: also called Ab 850; Antibody Number 850
On to B15, for which the affinity in experiment [4], expressed as Kd, was 123 nM. Further, in experiment [5], the “Neutralization IC50 (RSV subtype A)” value was over 25 µg/mL. Also, in experiment [6], the binding result is “no binding (tested: 100 nM antigen)”.

B16: ADI-41690 (antibody, V domains shown)
VH: QVQLVQSGAEVKKPGESLRISCKGSGYSFSSHWIGWVRQKPGKGLEWMGIIYPGDSDTRYSPSFQGHVTISADKSISTAYLRWSSLKASDTAIYYCAKRMVGDYYGMNLWGQGTTVTVSS
VL: EIVMTQSPSSLSASVGDRVTITCQASQDISNRLNWYQQKPGKAPKLLIYDASNLETGVPSRFSGSGSGTDFTFTISSLQPEDIATYFCQQYDYLLWFTFGPGTKVDIK
notes: also called Ab 893; Antibody Number 893
In turn, B16 yielded a Kd in experiment [4] of 8.78 nM. Also, the “Neutralization IC50 (RSV subtype A)” value in experiment [5] is over 25 µg/mL. The binding result in experiment [6] is “no binding (tested: 100 nM antigen)”.

For the origin of these results see US20260258115A1 (MAPP BIOPHARMACEUTICAL, published 2026).
